Experimental data taken from patent publication US11433139B2, “Peptide vaccines against interleukin-31” (Zoetis Services LLC, priority 2018, dated 2022).

Tests used:
[1] = test system: canine IL-31; test: Competition binding assessment using Biacore, canine IL-31 surface; settings: sequential addition of 15H05 and 11E12, Biacore
Method: To further characterize the IL-31 epitopes bound by mAbs 15H05 and 11 E12, blocking experiments were performed using biacore where the surface containing the IL-31 protein was generated followed by sequential addition of antibodies. FIGS. 7A and 7B show the relative binding of each antibody to IL-31 following capture of 11E12 or 15H05. The columns labeled HBS-EP (assay buffer) indicate the maximum signal obtained from each antibody binding to the IL-31 surface alone without competition. […] The sensograms related to FIG. 7A show the disassociation kinetics of both antibodies are very slow on this newly formed biacore surface therefore no additional occupation of binding sites can occur with addition of the same antibody (data not shown).

[2] = test system: feline IL-31; test: Inhibition of feline IL-31 induced pSTAT3 signaling in canine DH-82 cells; format: cell-based; settings: feline IL-31, pSTAT3, canine DH82 cells (FIG. 3)
feline IL-31, sequence (as listed by the source): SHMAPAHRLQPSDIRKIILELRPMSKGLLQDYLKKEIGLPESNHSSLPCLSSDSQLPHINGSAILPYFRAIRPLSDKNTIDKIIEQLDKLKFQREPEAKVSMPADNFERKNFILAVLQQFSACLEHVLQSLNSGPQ
How it was run: (§1)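 DH-82 cells primed with canine IFN-γ 10 ng/mL for 24 h, FCWF4 with feline IFN-γ 125 ng/mL for 96 h, then serum-starved 2 h. mAb pre-incubated 1 h with 1 μg/mL canine or 0.2 μg/mL feline IL-31, cells stimulated 5 min; pSTAT3 by AlphaLISA SureFire, IC50 as half-maximal signalling reduction.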

[3] = test system: canine IL-31; test: Biacore binding, single test concentration of antibody, canine IL-31 surface
Method: For the indirect ELISA, binding (ELISA OD) to wildtype feline IL-31 and a feline IL-31 15H05 mutant which had mutations in the monoclonal antibody 15H05 epitope region was assessed. To confirm binding, biacore analysis was performed using canine, feline, equine, human, the feline 15H05 mutant, and feline 11E12 mutant IL-31 proteins as surfaces and a single test concentration of antibody. The feline IL-31 11E12 mutant had mutations in the monoclonal antibody 11E12 epitope region.
For the indirect ELISA method, antibody binding to wildtype and feline IL-31 15H05 mutant proteins was assessed. […] In comparison, the 11E12 antibody bound to the wild-type feline IL-31 and its binding was not impacted by the mutations in the 15H05 epitope region as evidenced by the data in FIG. 4. To confirm binding, biacore analysis was performed using canine, feline, equine, human, feline 15H05 mutant, and feline 11E12 mutant IL-31 proteins as surfaces and a single test concentration of antibody. Similar to ELISA observations, all antibodies tested bound to wildtype feline IL-31. In agreement with the data described above in this section, mouse antibodies 11 E12 and 15H05 both bound to canine and feline IL-31 surfaces. […] From this group of nine fully canine antibodies, only ZIL1 and ZIL9 cross-reacted with equine IL-31. Of note, antibody 15H05 was the only one of all assayed herein that bound to canine, feline, and equine IL-31 indicating some level of epitope conservation across the three species. In contrast, none of the antibodies described herein bound to human IL-31. Additional biacore surfaces were used to verify ELISA observations showing differential binding of antibodies to wildtype feline IL-31 and two proteins with mutations in the 15H05 (15H05 mutant) or 11 E12 (11E12 mutant) epitopes. […] Differing results can be attributed to differences in the two assay methodologies.

[4] = test system: wildtype feline IL-31; test: Indirect ELISA, binding to wildtype feline IL-31
wildtype feline IL-31, sequence (as listed by the source): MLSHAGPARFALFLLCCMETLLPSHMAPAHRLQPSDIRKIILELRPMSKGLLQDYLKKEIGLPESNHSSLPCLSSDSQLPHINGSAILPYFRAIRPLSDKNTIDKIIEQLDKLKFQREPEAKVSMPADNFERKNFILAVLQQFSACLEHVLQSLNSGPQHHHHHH
How it was run: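 Wildtype or 15H05-epitope-mutant feline IL-31 coated directly onto plates as capture antigen (50 ng/well). Antibodies diluted in PBST, bound antibody detected with HRP-labelled secondary and TMB for 10 min at RT. Reaction stopped with 0.1 N HCl, then OD read at 450 nm.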

[5] = target: T1, canine IL-31 (Canis lupus familiaris, UniProt A0A8I3S3D1); test: Inhibition of canine IL-31 induced pSTAT3 signaling in canine DH-82 and feline FCWF4 cells; format: cell-based
T1 construct: made in house; host or cells: CHO cells (CHROMOS ACE system)
T1 sequence (A0A8I3S3D1 24-159): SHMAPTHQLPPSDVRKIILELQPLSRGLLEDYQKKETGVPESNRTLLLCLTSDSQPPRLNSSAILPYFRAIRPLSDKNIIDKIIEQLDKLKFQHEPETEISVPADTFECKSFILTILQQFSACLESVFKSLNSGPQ
How it was run: as §1

canine IL-31, sequence (as listed by the source): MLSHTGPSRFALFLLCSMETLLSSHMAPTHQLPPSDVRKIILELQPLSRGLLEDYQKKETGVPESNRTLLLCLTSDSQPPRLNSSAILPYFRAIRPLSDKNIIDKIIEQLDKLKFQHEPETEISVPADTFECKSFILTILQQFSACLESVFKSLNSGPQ

B1: 15H05: mouse anti IL-31 monoclonal antibody, VH SEQ ID NO: 67, VL SEQ ID NO: 69 (antibody, listed as Mus musculus, V domains shown)
VH: QVQLQQSAAELARPGASVKMSCKTSGYTFTSYTIHWIKQRPGQGLEWIGNINPTSGYTENNQRFKDKTTLTVDRSSNTAYLQLHSLTSEDSAVYFCARWGFKYDGEWSFDVWGAGTTVTVSS
VL: DIQMNQSPSSLSASLGDTITVTCRASQGISIWLSWYQQKPGNIPKVLINKASNLHIGVPPRFSGSGSGTHFTLTITSLQPEDIATYYCLQSQTYPLTFGGGTKLEIN
B1 was tested, and the “competition binding on canine IL-31” value [1] was “capable of binding to canine IL-31 in the presence of one another”, the “potency (IC50) against feline IL-31 in canine DH82 cells” value [2] was “comparable” and the “binding to canine IL-31 (Biacore)” value [3] was “bound”. For the same molecule, the “binding to wildtype feline IL-31 (ELISA)” value [4] was “capable of binding”, the “blocking of canine IL-31 signaling in canine cells” value ([5]; canine IL-31, canine cells) was “capable of blocking canine IL-31 signaling” and the “blocking of canine IL-31 signaling in feline cells” value ([5]; canine IL-31, feline cells) was “capable of blocking canine IL-31 signaling”.
